Results: article doi:10.1101/331207 (bioRxiv, 2018)

Target: the molecule itself
Assay: cryo-EM structure

B1: human LRRC8A (leucine-rich repeat-containing 8A) wild-type protein (natural protein)
chain: MIPVTELRYFADTQPAYRILKPWWDVFTDYISIVMLMIAVFGGTLQVTQDKMICLPCKWVTKDSCNDSFRGWAAPGPEPTYPNSTILPTPDTGPTGIKYDLDRHQYNYVDAVCYENRLHWFAKYFPYLVLLHTLIFLACSNFWFKFPRTSSKLEHFVSILLKCFDSPWTTRALSETVVEESDPKPAFSKMNGSMDKKSSTVSEDVEATVPMLQRTKSRIEQGIVDRSETGVLDKKEGEQAKALFEKVKKFRTHVEEGDIVYRLYMRQTIIKVIKFILIICYTVYYVHNIKFDVDCTVDIESLTGYRTYRCAHPLATLFKILASFYISLVIFYGLICMYTLWWMLRRSLKKYSFESIREESSYSDIPDVKNDFAFMLHLIDQYDPLYSKRFAVFLSEVSENKLRQLNLNNEWTLDKLRQRLTKNAQDKLELHLFMLSGIPDTVFDLVELEVLKLELIPDVTIPPSIAQLTGLKELWLYHTAAKIEAPALAFLRENLRALHIKFTDIKEIPLWIYSLKTLEELHLTGNLSAENNRYIVIDGLRELKRLKVLRLKSNLSKLPQVVTDVGVHLQKLSINNEGTKLIVLNSLKKMANLTELELIRCDLERIPHSIFSLHNLQEIDLKDNNLKTIEEIISFQHLHRLTCLKLWYNHIAYIPIQIGNLTNLERLYLNRNKIEKIPTQLFYCRKLRYLDLSHNNLTFLPADIGLLQNLQNLAITANRIETLPPELFQCRKLRALHLGNNVLQSLPSRVGELTNLTQIELRGNRLECLPVELGECPLLKRSGLVVEEDLFNTLPPEVKERLWRADKEQA
stoichiometry N: 6
